Laboratory results: PMC12872393, “NCOA4 initiates ferritinophagy by avidly binding GATE16 using two short linear interaction motifs” (Life Science Alliance, 2026)

Biological target: (GST-GATE16)2 (UniProt P60520)
Assay: SEC-MALS; 100 μl of 1 mg/ml protein on a WTC-030 column; 20 mM Tris, 150 mM NaCl, pH 7.5; 0.5 ml/min

stoichiometry N: 2
Substance: (GST-GATE16)2 (from UniProt P60520 1-117) (natural protein)
